Assay results reported in PMC7683346.

Molecular target: FFAR4-NanoLuc (UniProt Q5NUL3)
Experiment: FRET or BRET

UniProt Q5NUL3, sequence (Q5NUL3 whole entry): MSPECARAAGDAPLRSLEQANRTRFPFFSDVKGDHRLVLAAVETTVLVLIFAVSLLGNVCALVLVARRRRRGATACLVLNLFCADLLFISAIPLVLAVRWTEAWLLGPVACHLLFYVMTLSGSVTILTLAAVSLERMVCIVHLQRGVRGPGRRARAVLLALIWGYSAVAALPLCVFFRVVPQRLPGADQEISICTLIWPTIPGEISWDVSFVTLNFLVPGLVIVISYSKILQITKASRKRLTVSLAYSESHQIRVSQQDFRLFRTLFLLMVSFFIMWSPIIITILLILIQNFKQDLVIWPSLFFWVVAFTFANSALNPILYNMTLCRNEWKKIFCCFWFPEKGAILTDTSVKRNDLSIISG

Row | Substance | fold BRET signal against mini-Gαq [fold]
1 | Venus-tagged mini-Gαo | 3
2 | Venus-tagged mini-Gαi | 3
